Molecular target: mouse ASIC1a wild type (mouse) (UniProt Q6NXK8)
UniProt Q6NXK8, sequence (Q6NXK8 whole entry): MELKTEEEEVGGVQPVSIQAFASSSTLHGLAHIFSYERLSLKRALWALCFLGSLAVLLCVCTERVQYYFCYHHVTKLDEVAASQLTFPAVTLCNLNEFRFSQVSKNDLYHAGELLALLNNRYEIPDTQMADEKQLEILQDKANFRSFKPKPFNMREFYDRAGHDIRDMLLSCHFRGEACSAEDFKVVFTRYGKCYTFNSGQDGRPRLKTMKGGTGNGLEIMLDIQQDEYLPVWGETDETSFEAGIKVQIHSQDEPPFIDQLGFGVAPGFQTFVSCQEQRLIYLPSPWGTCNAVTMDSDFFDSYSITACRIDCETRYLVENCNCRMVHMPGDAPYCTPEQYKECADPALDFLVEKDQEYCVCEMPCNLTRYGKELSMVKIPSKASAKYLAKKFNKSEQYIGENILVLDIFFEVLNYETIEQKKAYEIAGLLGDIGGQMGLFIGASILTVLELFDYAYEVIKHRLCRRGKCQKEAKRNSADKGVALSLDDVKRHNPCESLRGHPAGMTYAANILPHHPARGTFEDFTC

Substance: BigDyn Arg9Ala (peptide)
- fold increase of the EC50 of current rescue against BigDyn (TEVC): > 50 fold

— publication doi:10.1101/816264
